Experimental findings from paper PMC10798138 (Journal of inorganic biochemistry, 2023) are described below.

The series “SEC” concerns the molecule itself. The series is described as follows: SEC. (In general: Size exclusion chromatography separates by hydrodynamic size, large species first.)
In series [1] the target is T1, bovine Adrenodoxin reductase (bovine, UniProt P08165 33-492).
T1 sequence: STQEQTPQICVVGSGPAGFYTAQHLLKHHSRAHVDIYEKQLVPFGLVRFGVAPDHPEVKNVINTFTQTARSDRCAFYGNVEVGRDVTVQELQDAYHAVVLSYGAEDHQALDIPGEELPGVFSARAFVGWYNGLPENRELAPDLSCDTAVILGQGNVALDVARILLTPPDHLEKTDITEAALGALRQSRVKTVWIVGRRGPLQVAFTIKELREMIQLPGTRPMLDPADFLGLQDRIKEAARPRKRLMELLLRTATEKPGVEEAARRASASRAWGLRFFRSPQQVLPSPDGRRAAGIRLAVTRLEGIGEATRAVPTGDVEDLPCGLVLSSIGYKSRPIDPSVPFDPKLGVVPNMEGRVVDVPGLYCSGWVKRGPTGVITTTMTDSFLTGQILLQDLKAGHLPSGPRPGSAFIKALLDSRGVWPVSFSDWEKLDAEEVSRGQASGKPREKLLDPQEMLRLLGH
The series is described as follows: NMR titration.

B1: full-length human Adrenodoxin with the L80V mutation (natural protein, UniProt P10109 62-184, looked up)
chain: SSEDKITVHFINRDGETLTTKGKVGDSLLDVVVENNLDIDGFGACEGTLACSTCHLIFEDHIYEKLDAITDEENDMLDVAYGLTDRSRLGCQICLTKSMDNMTVRVPETVADARQSIDVGKTS
As for B1, the binding result in “SEC” is “binds”.

B2: full-length human Adrenodoxin (Ferredoxin 1), hAdx (2–124) (natural protein, UniProt P10109 62-184, looked up)
chain: SSEDKITVHFINRDGETLTTKGKVGDSLLDVVVENNLDIDGFGACEGTLACSTCHLIFEDHIYEKLDAITDEENDMLDLAYGLTDRSRLGCQICLTKSMDNMTVRVPETVADARQSIDVGKTS
Consider B2, for which the binding result in series [1] is recorded as “binds”.
